These results are taken from paper PMC5386136.

The target of assay [1] is SHANK3 SPN(R12C)-ARR mutant (rat). Put plainly: ITC. (Isothermal titration calorimetry measures the heat released or taken up as one component is titrated into another.)
Assay [2] addresses SHANK3 SPN-ARR (residues 1-348) (rat). Put plainly: ITC.

In general, Kd refers to the concentration at which binding is half-saturated. “Rap1b (residues 1-166) (from UniProt P61224 1-166) (natural protein)”: the Kd turned out to be 2200 nM in assay [1] and 200 nM in assay [2].
